{"source": "patent US20130259873A1", "key": {"[1]": {"target": "high molecular weight melanoma associated antigen (HMW-MAA), also known as CSPG4 (human) (UniProt Q6UVK1)", "sequence (Q6UVK1 30-2322)": "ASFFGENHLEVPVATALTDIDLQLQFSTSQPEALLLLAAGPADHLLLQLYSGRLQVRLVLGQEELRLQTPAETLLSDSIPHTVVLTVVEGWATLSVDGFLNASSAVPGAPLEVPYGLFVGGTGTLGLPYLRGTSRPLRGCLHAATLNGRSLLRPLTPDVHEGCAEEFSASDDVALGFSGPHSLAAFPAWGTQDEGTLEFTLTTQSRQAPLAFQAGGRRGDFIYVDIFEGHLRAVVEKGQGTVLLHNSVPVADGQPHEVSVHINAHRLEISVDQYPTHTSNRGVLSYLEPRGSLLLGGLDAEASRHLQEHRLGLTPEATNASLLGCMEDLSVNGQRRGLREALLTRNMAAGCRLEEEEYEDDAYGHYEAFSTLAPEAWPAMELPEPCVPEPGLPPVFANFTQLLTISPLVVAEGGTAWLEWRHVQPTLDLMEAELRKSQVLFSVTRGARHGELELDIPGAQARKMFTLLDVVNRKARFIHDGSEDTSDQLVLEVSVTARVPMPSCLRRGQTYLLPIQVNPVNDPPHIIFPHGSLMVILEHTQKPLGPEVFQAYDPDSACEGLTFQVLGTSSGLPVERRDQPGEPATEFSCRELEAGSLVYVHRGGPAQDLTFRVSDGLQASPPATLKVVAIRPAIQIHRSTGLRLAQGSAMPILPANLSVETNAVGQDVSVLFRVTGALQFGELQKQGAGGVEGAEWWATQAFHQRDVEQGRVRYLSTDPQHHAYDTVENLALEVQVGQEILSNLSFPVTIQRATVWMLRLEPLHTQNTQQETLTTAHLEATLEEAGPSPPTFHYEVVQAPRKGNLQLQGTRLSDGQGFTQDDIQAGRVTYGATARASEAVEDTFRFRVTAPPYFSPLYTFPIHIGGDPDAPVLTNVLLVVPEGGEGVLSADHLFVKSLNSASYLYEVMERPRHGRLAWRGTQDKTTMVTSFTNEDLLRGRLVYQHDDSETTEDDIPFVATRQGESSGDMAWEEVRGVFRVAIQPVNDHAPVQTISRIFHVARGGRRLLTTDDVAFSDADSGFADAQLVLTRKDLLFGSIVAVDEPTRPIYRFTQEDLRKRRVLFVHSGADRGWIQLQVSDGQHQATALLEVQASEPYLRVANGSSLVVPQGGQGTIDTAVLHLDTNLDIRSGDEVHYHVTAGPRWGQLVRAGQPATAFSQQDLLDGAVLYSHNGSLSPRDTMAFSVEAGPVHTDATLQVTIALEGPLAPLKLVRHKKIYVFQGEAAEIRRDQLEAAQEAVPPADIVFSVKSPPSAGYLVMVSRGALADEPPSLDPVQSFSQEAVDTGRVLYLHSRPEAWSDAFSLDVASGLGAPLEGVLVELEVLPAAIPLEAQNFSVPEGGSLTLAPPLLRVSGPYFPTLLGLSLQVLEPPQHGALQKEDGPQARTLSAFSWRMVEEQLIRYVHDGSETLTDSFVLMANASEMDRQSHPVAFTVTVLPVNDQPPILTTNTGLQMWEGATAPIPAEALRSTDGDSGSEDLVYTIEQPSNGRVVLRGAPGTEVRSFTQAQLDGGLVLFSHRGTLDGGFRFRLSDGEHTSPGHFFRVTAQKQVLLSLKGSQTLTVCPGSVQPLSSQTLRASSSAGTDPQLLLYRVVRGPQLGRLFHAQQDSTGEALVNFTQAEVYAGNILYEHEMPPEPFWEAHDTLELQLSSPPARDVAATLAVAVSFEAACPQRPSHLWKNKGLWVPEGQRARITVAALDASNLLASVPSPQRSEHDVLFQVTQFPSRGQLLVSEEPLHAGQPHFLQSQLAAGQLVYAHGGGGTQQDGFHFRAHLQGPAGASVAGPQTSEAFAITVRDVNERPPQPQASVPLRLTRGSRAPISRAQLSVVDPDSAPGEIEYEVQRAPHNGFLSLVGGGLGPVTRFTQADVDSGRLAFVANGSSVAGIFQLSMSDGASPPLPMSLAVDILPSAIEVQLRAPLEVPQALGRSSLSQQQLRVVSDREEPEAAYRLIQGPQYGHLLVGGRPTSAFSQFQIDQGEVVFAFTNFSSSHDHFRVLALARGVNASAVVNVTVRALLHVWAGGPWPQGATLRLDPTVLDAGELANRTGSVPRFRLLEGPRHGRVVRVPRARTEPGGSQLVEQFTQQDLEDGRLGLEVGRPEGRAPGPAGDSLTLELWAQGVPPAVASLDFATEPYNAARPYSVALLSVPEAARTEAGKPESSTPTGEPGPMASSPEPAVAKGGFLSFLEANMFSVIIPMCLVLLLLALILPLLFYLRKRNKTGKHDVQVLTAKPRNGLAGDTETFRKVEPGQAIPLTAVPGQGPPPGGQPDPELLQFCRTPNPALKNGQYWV", "assay": "flow cytometry, melanoma cell line 526 (BRAF V600E), PE-conjugated anti-mouse IgG"}, "[2]": {"target": "high molecular weight melanoma associated antigen (HMW-MAA), also known as CSPG4 (human) (UniProt Q6UVK1)", "assay": "flow cytometry, melanoma cell line 677 (BRAF V600E), PE-conjugated anti-mouse IgG"}, "[3]": {"target": "high molecular weight melanoma associated antigen (HMW-MAA), also known as CSPG4 (human) (UniProt Q6UVK1)", "assay": "flow cytometry, melanoma cell line 836 (BRAF V600E), PE-conjugated anti-mouse IgG"}, "[4]": {"target": "high molecular weight melanoma associated antigen (HMW-MAA), also known as CSPG4 (human) (UniProt Q6UVK1)", "assay": "flow cytometry, melanoma cell line M21 (BRAF V600E), PE-conjugated anti-mouse IgG"}, "[5]": {"target": "high molecular weight melanoma associated antigen (HMW-MAA), also known as CSPG4 (human) (UniProt Q6UVK1)", "assay": "flow cytometry, melanoma cell line 1287 (BRAF V600E), PE-conjugated anti-mouse IgG"}, "[6]": {"target": "high molecular weight melanoma associated antigen (HMW-MAA), also known as CSPG4 (human) (UniProt Q6UVK1)", "assay": "flow cytometry, melanoma cell line 1495 (BRAF V600E), PE-conjugated anti-mouse IgG"}, "[7]": {"target": "high molecular weight melanoma associated antigen (HMW-MAA), also known as CSPG4 (human) (UniProt Q6UVK1)", "assay": "flow cytometry, melanoma cell line M233 (BRAF V600E), PE-conjugated anti-mouse IgG"}, "[8]": {"target": "high molecular weight melanoma associated antigen (HMW-MAA), also known as CSPG4 (human) (UniProt Q6UVK1)", "assay": "flow cytometry, melanoma cell line Colo38 (BRAF V600E), PE-conjugated anti-mouse IgG"}, "[9]": {"target": "high molecular weight melanoma associated antigen (HMW-MAA), also known as CSPG4 (human) (UniProt Q6UVK1)", "assay": "flow cytometry, melanoma cell line Mel624 (BRAF V600E), PE-conjugated anti-mouse IgG"}, "[10]": {"target": "high molecular weight melanoma associated antigen (HMW-MAA), also known as CSPG4 (human) (UniProt Q6UVK1)", "assay": "flow cytometry, melanoma cell line WM1158 (BRAF V600E), PE-conjugated anti-mouse IgG"}, "[11]": {"target": "high molecular weight melanoma associated antigen (HMW-MAA), also known as CSPG4 (human) (UniProt Q6UVK1)", "assay": "flow cytometry, melanoma cell line MV3 (BRAF wild type), PE-conjugated anti-mouse IgG"}, "[12]": {"target": "high molecular weight melanoma associated antigen (HMW-MAA), also known as CSPG4 (human) (UniProt Q6UVK1)", "assay": "flow cytometry, melanoma cell line SK-MEL-5 (BRAF V600E), PE-conjugated anti-mouse IgG"}, "[13]": {"target": "high molecular weight melanoma associated antigen (HMW-MAA), also known as CSPG4 (human) (UniProt Q6UVK1)", "assay": "flow cytometry, melanoma cell line UACC-257 (BRAF V600E), PE-conjugated anti-mouse IgG"}, "[14]": {"target": "high molecular weight melanoma associated antigen (HMW-MAA), also known as CSPG4 (human) (UniProt Q6UVK1)", "assay": "flow cytometry, melanoma cell line SK-MEL-19 (BRAF V600E), PE-conjugated anti-mouse IgG"}, "[15]": {"target": "high molecular weight melanoma associated antigen (HMW-MAA), also known as CSPG4 (human) (UniProt Q6UVK1)", "assay": "flow cytometry, melanoma cell line SK-MEL-28 (BRAF V600E), PE-conjugated anti-mouse IgG"}, "[16]": {"target": "high molecular weight melanoma associated antigen (HMW-MAA), also known as CSPG4 (human) (UniProt Q6UVK1)", "assay": "flow cytometry, melanoma cell line SK-MEL-37 (BRAF V600E), PE-conjugated anti-mouse IgG"}}}
{"substance": "HMW-MAA (CSPG4)-specific mouse mAb 225.28 (antibody)", "values": [{"measurement": "% of cells that express CSPG4", "setting": "[1]", "result": 78.4, "unit": "%"}, {"measurement": "MFI", "setting": "[1]", "result": 20.2}, {"measurement": "% of cells that express CSPG4", "setting": "[2]", "result": 93, "unit": "%"}, {"measurement": "MFI", "setting": "[2]", "result": 55.8}, {"measurement": "% of cells that express CSPG4", "setting": "[3]", "result": 99.4, "unit": "%"}, {"measurement": "MFI", "setting": "[3]", "result": 1210}, {"measurement": "% of cells that express CSPG4", "setting": "[4]", "result": 99.9, "unit": "%"}, {"measurement": "MFI", "setting": "[4]", "result": 917}, {"measurement": "% of cells that express CSPG4", "setting": "[5]", "result": 99.9, "unit": "%"}, {"measurement": "MFI", "setting": "[5]", "result": 117}, {"measurement": "% of cells that express CSPG4", "setting": "[6]", "result": 80, "unit": "%"}, {"measurement": "MFI", "setting": "[6]", "result": 437}, {"measurement": "% of cells that express CSPG4", "setting": "[7]", "result": 40.8, "unit": "%"}, {"measurement": "MFI", "setting": "[7]", "result": 274}, {"measurement": "% of cells that express CSPG4", "setting": "[8]", "result": 99.8, "unit": "%"}, {"measurement": "MFI", "setting": "[8]", "result": 493}, {"measurement": "% of cells that express CSPG4", "setting": "[9]", "result": 88.2, "unit": "%"}, {"measurement": "MFI", "setting": "[9]", "result": 130}, {"measurement": "% of cells that express CSPG4", "setting": "[10]", "result": 99.8, "unit": "%"}, {"measurement": "MFI", "setting": "[10]", "result": 586}, {"measurement": "% of cells that express CSPG4", "setting": "[11]", "result": 99.7, "unit": "%"}, {"measurement": "MFI", "setting": "[11]", "result": 581}, {"measurement": "% of cells that express CSPG4", "setting": "[12]", "result": 99.6, "unit": "%"}, {"measurement": "MFI", "setting": "[12]", "result": 275}, {"measurement": "% of cells that express CSPG4", "setting": "[13]", "result": 99.9, "unit": "%"}, {"measurement": "MFI", "setting": "[13]", "result": 890}, {"measurement": "% of cells that express CSPG4", "setting": "[14]", "result": 99.9, "unit": "%"}, {"measurement": "MFI", "setting": "[14]", "result": 607}, {"measurement": "% of cells that express CSPG4", "setting": "[15]", "result": 99.8, "unit": "%"}, {"measurement": "MFI", "setting": "[15]", "result": 572}, {"measurement": "% of cells that express CSPG4", "setting": "[16]", "result": 99.9, "unit": "%"}, {"measurement": "MFI", "setting": "[16]", "result": 280}]}
